This data set is described as follows: label from the status in PepcDB records.
For the sequence “MNEQIDPFYEAKQEVDISVNKLQSLYNNWNNIPDKSSISAREKYNLIKEEIKYLNEDLNDLDNSVNIVKKNSYKFNISSQEIEERTQSLRIIRNLLNEITNNINNNVLSYNNNTNNDYNSVILKRQDNDLEELAESAERLHHAAITINTELKDQQKLLDELENEMDISSNEYKMDIYSIYIFVYFEFS”, the protein production result is reported as “failed”.

For the sequence “MGHHHHHHSHESVVPARMAEMARCIRERDFPSFAQLTMKDSNQFHATCLDTFPPISYLNAISWRIIHLVHRFNAHHGDTKVAYTFDAGPNAVIFTLDDTVAEFVAAVWHGFPPGSNGD”, the protein production entry is given as “failed”. “FFKGAASSVLELTEAELVTAEAVRSVWQRILPKVLEVEDSTDFFKSGAASVDVVRLVEEVKELCDGLELENEDVYMASTFGDFIQLLVRKLRGDDEE”: the protein production result is “not failed”.

Consider “MFLPKFNPIRSFSPILRAKTLLRYQNRMYLSTEIRKAIEDAIESAPVVLFMKGTPEFPKCGFSRATIGLLGNQGVDPAKFAAYNVLEDPELREGIKEFSEWPTIPQLYVNKEFIGGCDVITSMARSGELADLLEEAQALVPEEEEETKDR”, for which the protein production entry is “failed”.

Regarding “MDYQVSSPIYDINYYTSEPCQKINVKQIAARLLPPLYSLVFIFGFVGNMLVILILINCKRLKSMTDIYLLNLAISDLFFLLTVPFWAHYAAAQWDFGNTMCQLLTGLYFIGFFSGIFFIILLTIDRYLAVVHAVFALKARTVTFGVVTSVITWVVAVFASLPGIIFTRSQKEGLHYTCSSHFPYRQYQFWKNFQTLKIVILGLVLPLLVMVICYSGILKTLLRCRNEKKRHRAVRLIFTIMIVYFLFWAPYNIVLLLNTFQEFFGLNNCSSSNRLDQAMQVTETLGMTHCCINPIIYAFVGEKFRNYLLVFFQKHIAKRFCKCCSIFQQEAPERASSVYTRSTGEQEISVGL”, the protein production entry is reported as “not failed”.

“SLHEEADHRVTDHGPRPFVVNIEDETKRNRAFRRALWTGDHLQVTLMSIQVGEDIGLEIHPHLDQFLRVEEGRGLVQMGHRQDNLHFQEEVFDDYAILIPAGTWHNVRNTGNRPLKLYSIYAPPQHPHGTVHETKAIAMAAEEHHHL”: the protein production result is “not failed”. Regarding “MLDVRARAALSGPLDRAAAMLDRPAVTPNRLTALGLLTGLASAGSAAAGWWPAAAALWLLSRLADGLDGPLARRRGTANSSGAGGFLDISADFLVYGAFVVGVAVGVGGPALPFLLVLLTYYVNGTAFLAFSSIAERTGRRGDGRLSGGRSLNFLGGLAEGGETIAVHTLWCLLPGFAHTIAWVWAAVVAVTAAHRVVTGYRQLR”, the protein production entry is given as “failed”. Consider “MIAMILVHPHIFWLSLGGLLLAAEMLGGNGYLLWSGVAAVITGLTVWLLPLGWEWQGVLFAALTLLAAWLWWRWLARRVREQKPTDSRLNQRGQQLVGRRFMLDAALVNGRGHMRVGDSSWPVCADEDLRAGTHVEVIAVEGITLRIRAV”, for which the protein production result is on record as “failed”.

Take “MEQNNIKEQLISFFNQACSTHQERLDFICSTRESDTFSSVDVPLEPIKNIIEITKDENQQIEITKIAVNNIKTLSSVGATGQYMASFFSTNSEPAIIFCVIYFLYHFGFLKDNNKKQIIKKAYETIADNIADYLNEN”: the protein production entry is given as “not failed”. Take “VINQVESASKVIDWPLALKRSANKADLAKEMLLGLVESLPETQLSIREAIDVQDIAQIKRLVHKLNGACCYTGTPNLAKITIQLETQLKMGLSTEELEPEFLEFFEHIEQVLFAVPEALKEMSEN”: the protein production entry is “failed”. The entry for “MYTCKNKERMLMYKTIIMPVDVFEMELSDKAIRHAEFLAQDDGVIHLLHVLPGSASLSLHRFAADVRRFEEHLQHEAEERLQTMVSHFTIDPSRIKQHVRFGSVRDEVNELAKELDADVVVIGSRNPSISTHLLGSNASSVIRHANLPVLVVR” is “failed”; for “MARLARLGEPFALATVVASSGSSPRKAGAKMLIRGDGSALGTVGGGHVEQDTLAAARASLAEGAPRTLEFVLTEEHGYACGGSMSVFIEPQGRRPLLVMFGAGHVGRAVTALAHGCGFRVIVVDERPEYAVPALLPGADEIVCVPVGAAFARLTLDRESFAVIATPGHVHDFDAVRGCLATEVGFIGLLGSRRKREALMKTLTEEGYEAGRQARVVTPVGLDIGAQTPEEIAVSIVGQLVKLRRQA” it is “failed”. As for “MADFQVVVGDDDGTAYSFEVDGQDANRFIGRAIGETVDGDAVGLPGYELEITGGSDQSGRPMHGDINGAETAAILSEGGVGFNPTVDGERKRVTVRGAEVSEDTRQINASIVSRGEQSIDDLLGGEDDE”, the protein production result is “failed”. Turning to “MCVRLENENFKAELSESGAELTSLKSKNTDNEYIWTANSSYWGRHAPILFPIVGKVKDNKYRIADKVYNLSQHGFARDMEFEVEDNASDRAVFKLVWNDETLEKYPYKFELRVIYVLKDSTVDVTYNVKNVDDKDIFFSIGAHPGFNCPVIGKQSENDELQFEDYYIEFEKRETTGVVKLNSSNLLSRNTSPFLYASNILNLSEKLFKQGALILKDLDSTSISLKNDKNTTSVTVSFEGFPYVGLWSKPEGAPFVCIEPWFGHADYEDFNGDFREKEDGLKLEVGKEFECTYSITIGELEHHHHHH”, the protein production entry is reported as “not failed”.

Regarding “MDRLTEMEAFANVVDQGGFTDAAKKMGISKSAVSKHVSSLEARLGARLLNRTTRRVSPTEIGLAYYDRARRVLNDAGEADALVTSMQSAPSGLLRISVATDFGVNHLSPVLSDFLAEFPDITVNMVLNNRYVELISEGFDMAVRIGELEDSTLRARKLTETTKRMIASPKYFEKYGHPQKIDDLNEHKLLHYSSQASGNVWKLTAPSGEKRQVRTAGWLSVNDGQSLLNAAISGLGIAYLPCYLFAEAMEQGLVEDAMPSLPDEVQGIYAVYPPGRFTQPKVRAFIDFLVHSFADKGPMNW”, the protein production entry was “not failed”. Next, “MFNKVAFMNIPMMDLIMIVIAIIITIGSFLFIAYLIFKYSKIKKQVKIIREVKINLPKMLKSNMIKNSFLIISLLCFYFGMLYIAGELVISHILFIAICWIVVFLYIIIKGETRGYICEEGLLVSGVLYSWKEFKDVKIEDNYIILTTPIHKIVIKKEKGVENILKNYLKRN”: “failed”; “MVVDSVTMEEEDTKEEAAMVATEGEDTKEEEDDTKEAVGDKEEGEVTAATAAATKVTMAAQGVVHMPEKRFRLSLVTKST”: “failed”. The entry for “MKPIDEELLLEQLIDNVKNCKDLEAAKALLFEICGHDAILEKAVDYCIFCHEGQFRKSGEPYAVHPILVATLVGFLSENKSNILAALLHDVIEDTNCTEEELREQFGSEVLKLVLGLTKIIEIREDNLISSKSKKSLTKSALTFRNMLLASIEDVGVLIVKLCDRLHNMLTLDILREDKQKRISEETLVVYAPIAHRLGISSIKNYLEDLSFKYLMPDEYKLIDNYINSNNQEMQLGLNEFISKIELLFLSNGFRQGSFEIQKRIKHSYSIYLKMQRKGIGIEEVLDLLGVRILVEKVSDCYLALGILHTHFNPLVSRFKDYIALPKQNGYQTIHTTLFDAKSIIEAQIRTFDMHKIAEFGIAAHWKYKEDGSVVAPRLDWLTDISMQSINNLENAEDYNAIELYEYAKDSLYVEDVAVYSPKGEIFTLPRGATVLDFAYEVHTKVGLHAKSAYVNRIKVPLLTELKNGDIVRVVTSNDKFYRCSWIDSVKTGKAKASIREFCKQKIREINLASSINMLSFIFGVDKNRIETWIEKENLVRRIRQVATDSAYLKDIVNGLKKYAKKSYWFDKYEIKEQKIGNFTLYCNHKIANVDFDFCCHPKRGDAVLAFVKGGNAIVHHKLCDRADKMIDNNQDMVFIKWDSNIPKSYKLIFSLENKKGVLAEFLAFLAKMQINLLTINLSSDLNSAVDYFEITMEIPDNINPDSVKDRLKSRCKILDFTSLNDAYKES” is “failed”; for “MPRRTATMLASTLMLIALLCAGVFIKVPYAEMSPGPTVNTLGEHDGEPVLQITGHKTYATTGHLNMTTVRVTSADYRMNLVEAVYGWLAHDNKVVPHDTLYPDGKTEEQSTQENAEEFSQSQESAKVAALKELDIPVKSWVIVSTVLKDSPAEGRLHAGDVIKAVDGTAVKAPDDVAELVTKHKPGDDVAFTILPAKEQAAAEKSKTYVPRTKKVTITTAKSDDTGAPRAIVGISAGTDHTFPFTVDIKLADVGGPSAGLMFALGIVDKLTPDDLTGGKFVAGTGTIDDDGKVGPIGGIEMKTVGAREKGAQYFLTPKDNCAAAAKDTPEGLTLVKVNTIDDALDALKDIRTGKTADLPKCTTKG” it is “failed”; for “ETQPESAAFTAPSTDNPIRINFNENPLGMSPKAQAAARDAVVKANRYAKNEILMLGNKLAAHHQVEAPSILLTAGSSEGIRAAIEAYASLEAQLVIPELTYGDGEHFAKIAGMKVTKVKMLDNWAFDIEGLKAAVAAYSGPSIVYLVNPNNPTGTITPADVIEPWIASKPANTMFIVDEAYAEFVNDPRFRSISPMITQGAENIILLKTFSKIHAMAGMRVGYAVAHPTVIALMGRYVAGEKINFSGVDAALASMNDSAFITYSKKSNDVSRQILLKALEDLKLPYLPSEGNFVFHQLVVPLKDYQTHMADAGVLIGRAFPPADNWCRISLGTPQEMQWVADTMREFRKKSWI” it is “not failed”. As for “SRPRLSQLSVTDVTTSSLRLNWEAPPGAFDSFLLRFGVPSPSTLEPHPRPLLQRELMVPGTRHSAVLRDLRSGTLYSLTLYGLRGPHKADSIQGTARTL”, the protein production result is “not failed”. The entry for “MSDKLLIMFHGVGSNGVDLLPIAQYWQRQIDGLDIAYPNAPFPFMHSHEVFEWFSLTGITPQNRYERIVDAREYFDQTILRTLQEHKFQGDLSQLIFCGFSQGTIMCLDAIVSGRWSVAGCIGFSGRLASPVESDVRTTKISLMHGEADAVIAVEEGREAYHTLNEAGFDVQLETYTGLGHSVNELELKKGLEFLQAL” is “failed”; for “MSLDYTYADDSLTLHTDMYQINMMQTYWELGRADLHAVFECYFREMPFNHGYAIFAGLERLVNYLENLTFTESDIAYLREVEEYPEDFLTYLANFEFKCTVRSALEGDLVFNNEPLIQIEGPLAQCQLVETALLNMVNFQTLIATKAARIKSVIGDDPLLEFGTRRAQELDAAIWGTRAAYIGGADATSNVRAGKIFGIPVSGTHAHSLVQSYGNDYEAFMAYAKTHRDCVFLVDTYDTLKAGVPSAIRVAREMGDKINFLGVRIDSGDMAYISKRVREQLDEAGFTEAKIYASNDLDENTILNLKMQKSKIDVWGVGTKLITAYDQPALGAVFKLVSIEGEDGQMKDTIKLSSNAEKVTTPGKKQVWRITRKSDKKSEGDYVTLWNEDPRQEEEIYMFHPVHTFINKYVRDFEARPVLQDIFVEGKRVYELPTLDEIKQYAKENLDSLWEEYKRDLNPQKYPVDLSTDCWNHKMNLLEKVRKDVKHLTETVNKEAEGHHHHHH” it is “not failed”. The entry for “MRDGVSPEQPKVSVIMPVRDGERWVAEAIRSVQSQTFRDFELLVIDDGSADATPAILAEAAAADPRIFVLTQHRDGLVAGLNRGLAAARAPLIARLDADDIALPDRLARQVDYMTTHPAVVLLGGWATIVDENGQPKGRDMRPNPNDLRATLMKKSPFIHPTVMFRAEAARRVGGYHAAFEAGEDYDFWLRLADIGEVAILPELLIRYREHSASVTRTRQLRQIYSARLAKLAAAARQAGQPDPSAPLTTPPDWHDASPGPFERDSSRLFRMLELADPAVAARIAPSAIDLNAITSQLGTLTAGERKFAQAALLNLLRANKLPSLAARWSAVFLLVRLGPLKAIKAARQLRNR” is “failed”. The entry for “MQQYAPTIQRALLFGLLIILLLLGFHILKYFIVPVVWAAIIAYMTWPIYIGIQRFCGENRPNLSATLMISLIILVIGIPLTFAVFMLQHEGRNLFIELQQQIFSGHLSAPDFIRELPLVGNEITRILNEINTNPSNLTQNLSLWIQSHMGYGRFVLSEISKNLVKLCFALLSLFFFYRDGHTILNQVSKALEMVIGPRIHHYMDTISETTRAVVYGVGLTAVAQAILAGLSYFVAGVPNPMVLTIVTFLLALIPFGTPLAYTSVALWLFSQGQMMGAIGVMLWGVCIVSTSDNVIRPLVISGATQIPFLLIMFGVLGGLASFGLVGLFIGPVILAILLAIWREWLHENIEPEPVPKATLIYDDLDDQTKL” is “failed”.

The values above are taken from a protein production outcome set (Wang et al. 2014).
